According to patent EP4703386A1 (Shanghai Sinobay Biotechnology Co., Ltd., dated 2026):

Columns and labels:
[1] = target: T1, CD276 protein on tumor target cells (NCI-H292, SK-OV-3) (human, UniProt Q5ZPR3 29-534); experiment: flow cytometry on NCI-H292 cells, IgG-Fc-PE second antibody
T1 construct: whole, on cells; for SK-OV-3 it is implied by the use of CD276-targeted BiTE and CAR; also called B7-H3; CD276-expressing target cells
T1 sequence (looked up): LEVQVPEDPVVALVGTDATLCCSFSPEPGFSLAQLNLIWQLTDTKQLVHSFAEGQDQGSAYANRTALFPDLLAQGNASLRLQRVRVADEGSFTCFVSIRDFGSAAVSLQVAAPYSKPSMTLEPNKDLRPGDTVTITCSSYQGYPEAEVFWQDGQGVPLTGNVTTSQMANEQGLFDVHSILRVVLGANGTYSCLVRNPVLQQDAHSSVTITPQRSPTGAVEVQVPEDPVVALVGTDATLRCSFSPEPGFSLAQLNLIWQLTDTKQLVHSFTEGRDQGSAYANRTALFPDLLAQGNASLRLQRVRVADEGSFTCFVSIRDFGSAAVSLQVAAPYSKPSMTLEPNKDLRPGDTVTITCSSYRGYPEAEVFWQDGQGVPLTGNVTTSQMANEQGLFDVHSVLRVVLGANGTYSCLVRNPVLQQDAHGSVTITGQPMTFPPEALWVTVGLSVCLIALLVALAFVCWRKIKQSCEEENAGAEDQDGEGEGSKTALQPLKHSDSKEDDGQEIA

[2] = target: T1, CD276 protein on tumor target cells …; experiment: flow cytometry on NCI-H292 cell line (Fig. 3)
[3] = target: T1, CD276 protein on tumor target cells …; experiment: cell-based or functional assay

B1: Hu012-24 (antibody, IgG1, V domains shown)
VH: EVQLVQSGGGLVKPGGSLRLSCAASGFTFSRHSMNWVRQAPGKGLEWVSSISSNDEHIIYADSVKGRFTISRDNSKNTLYLEMNSLRAEDTAVYYCARASRYGGSYYGLDYWGQGTLVTVSS
VL: QTVVTQEPSFSVSPGGTVTLTCGLTSGSVSTTYFPSWYQQTPGQPPRRLIYNTNTRSSGVPDRFSGSIVGIKAALTITGAQAEDESDYYCALYLGSGIVEFGGGTKLTVL
notes: Full-length IgG1 (AbVec-hIgG1, AbVec-hIgKappa); also called candidate antibody Hu012-24
- positive rate [1]: ~100%

B2: Hu012-27 (antibody, IgG1, V domains shown)
VH: QVQLVQSGGGVVQPGRSLRLSCAASGFTFSSYAMHWVRQAPGKGLEWVAVISYDGSNKYYADSVKGRFTISRDNSKNTLYLQMNSLRAEDTTVYYCARDRRYYSSMDVWGQGTTVTVSS
VL: QTVVTQEPSFSVSPGGTITLTCGLSSGSVSTSYYPSWYQQTPGQAPRTLIYNTNTRSSGVPDRFSGSILGNKAALTITGAQADDESHYYCALHMDSGSWVFGGGTQLTVL
notes: Full-length IgG1 (AbVec-hIgG1, AbVec-hIgKappa); also called candidate antibody Hu012-27
- binding result [1]: binds

B3: Hu012-3 (antibody, IgG1, V domains shown)
VH: QVQLVQSGAEVKKPGESLRISCKGSGYSFTSYWISWVRQMPGKGLEWMGRIDPSDSYTNYSPSFQGHVTISADKSISTAYLQWSSLKASDTAMYYCARHDASGGGPSDYWGQGTLVTVSS
VL: QSVLTQPPSVSAAPGQRVTISCSGSSSNIGDHYVSWYQQLPGTAPKLLIYDNNKRPSGIPDRFSGSKSGTSATLGITGLQTGDEADYYCGTWDSSLSVPNWVFGGGTKVTVL
notes: Full-length IgG1 (AbVec-hIgG1, AbVec-hIgKappa); also called candidate antibody Hu012-3
- binding result [2]: binds

B4: Hu012-1 (antibody, V domains shown)
VH: QVTLKESGGGLVQPGGSLRLSCAASGSIFNMYAMGWYRQAPGKQRELVASITSGGSTHYADSVKGRFTISRDNAKNTMYLQMNSLKPEDTAVYYCRQNDGMDYWGKGTLVTVSS
VL: QAGLTQPPSVSVAPGKTARITCGGNNIGSKSVHWYQQKPGQAPVVVIYDDSDRPSGIPERFSGSNSGNTATLTISRVEAGDEADFYCQVWDSSSDRYVFGTGTKLTVL
notes: Full-length IgG1 (AbVec-hIgG1, GenBank FJ475055.1; AbVec-hIgKappa, GenBank FJ475056.1); also called candidate antibody Hu012-1
- positive rate [1]: ~100%

B5: Hu012-29 (antibody, V domains shown)
VH: EVQLVESGGGLVQPGGSLRLSCAASRNIFRFYTMGWYRQAPEKQRDLVARITSDGTTNYADSVKGRFTISRDNAKNTVYLQMNSLKPEDTAVYYCNTDLPLNTYWAQGTLVTVSS
VL: DIQMTQSPSSLSASVGDRVTITCRASQSISSSLNWYQHKPGKAPKLLIYSASILQSGVPSRFSGSGSGTDYTLTISSLQPEDFATYSCQQSYTTPYTFGLGTKLEIK
notes: Full-length IgG1 (AbVec-hIgG1, AbVec-hIgKappa); also called candidate antibody Hu012-29
- binding result [1]: binds

B6: CD276(Hu012-8)BiTE (bispecific antibody)
chain: NIQMTQSPSSLSASVGDRVTITCRASQTISRYLNWYQQKPGKAPKLLIYAASSLQSGVPSRFSGSGSGADFTLTINTLQPEDFATYYCQQSYRTPQTFGQGTKVEIKGGGGSGGGGSGGGGSQVQLVQSGAEVKKPGASVRVSCKGSGYTFTDHHMYWVRQAPGQGLEWMGRINPNTGVTNYAQKFQGRVSMTRDTSINTVYLELRSLKSDDAAVYYCGRDQVVMVPGVPLDLGMDVWGQGTTVTVSSGGGGSQVQLVQSGAEVKKPGASVKVSCKASGYTFTRYTMHWVRQAPGQGLEWMGYINPSRGYTNYNQKFKDRVTITADKSTSTAYMELSSLRSEDTAVYYCARYYDDHYCLDYWGQGTTVTVSSGGGGSGGGGSGGGGSGSEIVLTQSPATLSLSPGERATLSCSASSSVSYMNWYQQKPGKAPKRLIYDTSKLASGVPSRFSGSGSGTDFTLTINSLEAEDAATYYCQQWSSNPFTFGQGTKVEIKR
- fold increase in killing the NCI-H292 tumor cell line against control BiTE [3]: 1.2 fold
- fold increase in killing the SK-OV3 tumor cell line against control BiTE [3]: 2 fold

B7: Hu012-13 (antibody, IgG1, V domains shown)
VH: EVQLVQSGAEVKKPGASVKVSCKASGYTFTSYGISWVRQAPGQGLEWMGWISAYNGNTNYAQKLQGRVTMTTDTSTSTAYMELRSLRSDDTAVYYCARAPYYGGYDYWGQGTMVTVSS
VL: ETTLTQSPGTLSLSPGDRATLSCRASQSVRSSYLAWYQQKPGQAPRLVIYGASNRAAGIPDRFSGSGSGTDFTLTISGLEPEDFAVYYCQEYGYSLPNTFGQGTKLEIK
notes: Full-length IgG1 (AbVec-hIgG1, AbVec-hIgKappa); also called candidate antibody Hu012-13
- binding result [1]: binds

B8: Hu012-7-4-1BB-CD3ζ chimeric antigen receptor on lentivirus-transduced T cells (other)
chain: GDYKDDDDKGSEVQLVESGGGVVQPGRSLTLSCAASGFTFNGYSMHWVRQAPGKGLEWVAVMSSDGGNKYYADSVKGRFTISRDNSKNTLYLQMNGLRPEDTAVYYCARAVSSGWSLPFDFWGHGTLVTVSSGGGGSGGGGSGGGGSDIVMTQSPSSLSTSIGDRVTITCRASQGISNFLAWFQQKPGKAPKSLIYAASRLQSGVPSKFSGSGSGTNFTLTISSLQPEDFATYYCQQYDSYPLTFGGGTKVEIKTRTTTPAPRPPTPAPTIASQPLSLRPEACRPAAGGAVHTRGLDFACDIYIWAPLAGTCGVLLLSLVITLYCKRGRKKLLYIFKQPFMRPVQTTQEEDGCSCRFPEEEEGGCELRVKFSRSADAPAYKQGQNQLYNELNLGRREEYDVLDKRRGRDPEMGGKPRRKNPQEGLYNELQKDKMAEAYSEIGMKGERRRGKGHDGLYQGLSTATKDTYDALHMQALPPR
- killing efficiency on SKOV3 cells, effector to target ratio 1:1 [3]: ~30%
- killing efficiency on SKOV3 cells, effector to target ratio 2:1 [3]: > 60%

B9: CD276(Hu012-7)BiTE (bispecific antibody)
chain: DIVMTQSPSSLSTSIGDRVTITCRASQGISNFLAWFQQKPGKAPKSLIYAASRLQSGVPSKFSGSGSGTNFTLTISSLQPEDFATYYCQQYDSYPLTFGGGTKVEIKGGGGSGGGGSGGGGSEVQLVESGGGVVQPGRSLTLSCAASGFTFNGYSMHWVRQAPGKGLEWVAVMSSDGGNKYYADSVKGRFTISRDNSKNTLYLQMNGLRPEDTAVYYCARAVSSGWSLPFDFWGHGTLVTVSSGGGGSQVQLVQSGAEVKKPGASVKVSCKASGYTFTRYTMHWVRQAPGQGLEWMGYINPSRGYTNYNQKFKDRVTITADKSTSTAYMELSSLRSEDTAVYYCARYYDDHYCLDYWGQGTTVTVSSGGGGSGGGGSGGGGSGSEIVLTQSPATLSLSPGERATLSCSASSSVSYMNWYQQKPGKAPKRLIYDTSKLASGVPSRFSGSGSGTDFTLTINSLEAEDAATYYCQQWSSNPFTFGQGTKVEIKR
- fold increase in killing the NCI-H292 tumor cell line against control BiTE [3]: 1.2 fold
- fold increase in killing the SK-OV3 tumor cell line against control BiTE [3]: 2.1 fold

B10: Hu012-6 (antibody, IgG1, V domains shown)
VH: QMQLVQSGGGLVQPGGSLRLSCAASGFTFSSYWMSWVRQAPGKGLEWVANIKQDGSEKYYVDSVKGRFTISRDNAKNSLYLQMNSLRAEDTAVYYCARSPHYDFWRRDYYYGMDVWGQGTLVTVSS
VL: QSVLTQPPSVSATPGQTVTISCSGSTSNIATNYVSWYQHLPGSAPKLLIYDNNKRPSGIPDRFSGSKSGTSATLDIIGLQTGDEADYYCGVWDPSLTTYVFGTGTQLTAL
notes: Full-length IgG1 (AbVec-hIgG1, AbVec-hIgKappa); also called candidate antibody Hu012-6
- binding result [2]: binds

B11: Hu012-21 (antibody, IgG1, V domains shown)
VH: EVQLVQSGGGVVQPGRSLRLSCAASGFTFSSYGMHWVRQAPGKGLEWVAVISYDGSNKYYADSVKGRFTISRDNSKDTLYLQMNSLRAEDTAVYYCAKDKLMGWHNYGMDVWGQGTTVTVSS
VL: AIQLTQSPSSLSASVGDRVTITCRASQSINSYLNWYQQKPGKAPKVLIYAASNLQSGVPSRFSGSGSGTDFTLTISSLQPEDFATYYCQQSYSTPPTFGQGTKLEIK
notes: Full-length IgG1 (AbVec-hIgG1, AbVec-hIgKappa); also called candidate antibody Hu012-21
- binding result [1]: binds

B12: Hu012-14 (antibody, IgG1, V domains shown)
VH: EVQLVETGGGLVQPGGSLRLSCAASGFTFSSYGMTWVRQPPGKGLEWVSHISGSGTNTYYADSVKGRFTISRDNSKNTLYLQMNNLGAEDTAVYYCAKLKWGHSGYGDYWGQGTTVTVSS
VL: EIVLTQSPATLSLSPGERATLSCRASQTISRYLAWYQQKPGQAPRLLIYDASNRATGIPARFSGSGSDTDFTLTISSIEPEDFAVYYCQERSNWPQVTFGPGTKLEIK
notes: Full-length IgG1 (AbVec-hIgG1, AbVec-hIgKappa); also called candidate antibody Hu012-14
- binding result [1]: binds

B13: Hu012-8 (antibody, IgG1, V domains shown)
VH: QVQLVQSGAEVKKPGASVRVSCKGSGYTFTDHHMYWVRQAPGQGLEWMGRINPNTGVTNYAQKFQGRVSMTRDTSINTVYLELRSLKSDDAAVYYCGRDQVVMVPGVPLDLGMDVWGQGTTVTVSS
VL: NIQMTQSPSSLSASVGDRVTITCRASQTISRYLNWYQQKPGKAPKLLIYAASSLQSGVPSRFSGSGSGADFTLTINTLQPEDFATYYCQQSYRTPQTFGQGTKVEIK
notes: Full-length IgG1; also called candidate antibody Hu012-8
- positive rate [1]: ~100%
